Assay: label from the status in PepcDB records

Row | Sequence | protein production
1 | MTKITVLSGKGGTGKTTVSVNMAKALSESYRVQLLDADVEEPNDHIFFNVDVSFEEPVHLMIPVVDNSVCIRCGECASTCQFGAISVFPSGTFVFESLCHGCGACSIMCPVNAISERPKEIGKIRFGTADGNISFGMGILNIGERTGVPVIRKLKKHIDEKADVVIVDAPPGTSCPVVESLRNTDFALLVTEPTAFGLHDLKLAVELTKEMGIPSGIVVNRYIPGNTIIEEFADEEGIPVLLKIPFKREIASLCAEGKLIVEAFQDMKKDFLELFEKIEVMVRLEHHHHHH | not failed
2 | MRSRDFSSWIWGDALSLLQQADRLHRQLLRTGPAQAPCWEPPVDMIETESAVLIYVALPGVAAGDVAVRFDPDGISISGVRPLPALRNARIHGLEIPYGRFQRRIRLPLHALEPEAPTLADGCLTLTLKKLREAP | failed
3 | MKKRFSNKVLIIGYGSVSQCTLPLLLDKLDIPLENITLIDFEDKSKALKKYTNQGLTFVREKITPENLDQVLSQNMENEGMIIDLSWNIDANEIVKWCHDHDVLYVNTSVEVWDPAEKFLTQSLLEKSLYLRQMRLQELSRDWKDAPTAVVDHGANPGLITHFVKQGLLDIAARTCEDKKVSPEDEQEIALLAKNRDFARLARKLGIRVIHCSERDTQIASRPKEVNEFVGTWSIEGLREEGTAPVEIAWGTHESKLPPLAHIPPYGPKNVILLPQMGVNAWVRSWIPDEEIVGMAIRHGESYGLSKLLTVWEGEKAVYRPTVHYAYMPSHDTLSSLCELRGRNYELQPRLRIMTNEIVSGEDIMGALLMGHSYNSWWTGSALSIEEARSLAPGQNATTLQVAAGIVAAILWMLENPREGVKTPEDLPHDFVLDIARPYLGKFISTPSDWTPLKNRKIFFKESPAVKHDPDPWQFENFIFVGLEHHHHHH | not failed
4 | MVRADEMMDICMLAGEIMLINGAETYRVEETLERMAKAGQFRNVHSFVTTTGIFLSFEEEGAGDVMQMIRVDDRMQDLNKVTLVNQVSREFVNGEIDAAEALTKLQNIAKQPMNYSPLLLHTASGVAGGAFSYLFGGNLFDTLPAFIAGFVASMAVVHLQSYLKVRFFAEFMAAFTGGAVAILLVLIGLGENVDQVIIGTLMPLVPGIPLTNAVRDLISGDLLAGVTRGAECFVTSLSIATGIALAIALLS | failed
5 | MISTMYSEETSERSSFPSKRHLEDRTENREEHSKRLRPTSFRDQKVTIPQGWLDCPRFGQHIGLIIPSKVPLSESYNDCVPSGKRYNFKQWLTKIGLVIDLTNTTRYYHPNTELRQNRIEYVKIRCSGRDSVPDNVSVNTFVHEVTQFENHNLSEKYLLVHCTHGHNRTGFMIVHYLMRSRPMMSVTQALKIFSDARPPGIYKPDYIDALYRFYHEVKPGSVICPPTPEWKRSEEAKFDDDDNALSYREVQGNNQEENVQLSNDDVLGDEIPYDQEVSYQNSINHMLNISMQFPGSHPLSLGREALQLLRQRYYYATWKADGTRYMMLLTRDGCYLVNREYRFRRVQMRFPCEYEPSDYKVHHYTLLDGEMVVDTIKEGETQRHVRRYLVYDLVAINGQFVAERPFSERWNILERELIKPRNDEKKVRDHWYRYDKEPFGVRIKAFCLLSAVEKKVFNELIPLLSHESDGLIFQGWDNPYVFGPNKDLLKWKFVETLDFLFDMDKYGRQMLFLQERGRMKLMEGFAVEFRGDGWDNDLASYCGKIVECSWDKEKKVWVSLRIRVDKSKPNGIGTGRSVIKCIEDDLTKEVLLKEIKEIILLPMYVERIENDTKEAARRKHGNRKG | failed
6 | MNALARLRGRKVVPQRSDGELDAMAAAGAVVAAALQAVRAAAVAGVSTLSLDQIAESVIRDAGAVPSFLGYHGYPASICASVNDRVVHGIPSAAEVLAPGDLVSIDCGAVLDGWHGDAAITFGVGALDPADEALCQGTRESLEAGIAAMVPGNRLTDVSHAIELGTRAAETRHGRAFGIVEGYGGHGIGRQMHMDPFLPNEGSPGRGPLLAPGSVLAIEPMLTLGTGKTVVLDDQWTVITTDGSRAAHWEHTVAVTDAGPRILTIG | failed
7 | MYHILIRKGLLNMKTVLIVGANGRVSIEATKIFLENSRFNVDLFLRNAHRIPDYASNRIKVYEGDAKNIEDLESALNNVDVVFASLSGSLDKQAETIVKAMDNKNVKRLIFVAAPGIYDELPEPFNQWNKEQFGEKLNRYRKASDIIENSDLDYTIIRPGWLTDKNENVYEITAKNETFKGTEVSRKSVASLAVQIAKNPELHSKENIGVNKPNTEGNKPAWFN | failed
8 | SFYLSELEHSLRVPPHLLNLPLEDAIKSVLQNVFLDKVLADLGLCVSIYDIKSVEGGFVLPGDGAATYKVGLRIVVFRPFVGEVIAAKFKESDANGLRLTLGFFDDIYVPAPLMPKPNRCEPDPYNRKQMIWVWEYGEPKEDYIVDDACQIKFRVESISYPSVPTERAEDAKPFAPMVVTGNMDDDGLGPVSWWDSYEQVDQEE | failed
9 | MGTKKNFVLDTNVILHDYNCLKNFQENDIYLPIVVLEELDKFKKGNEQINYNAREFVRELDLITDDSLFTHGAPLGEGLGKLFIVTGDSEAPKVHESFPARKPDHQILAVAEYLARKYPKMKNILVTKDVNLRMKARSIGILCEDYITDKVVNVDIFE | failed
10 | MTTIAILSDIHGNMTAFSAVIQDAKAHQADEYWFLGDLFLPGPGSDKLWATLHGLKPTHIVKGNWDDDLFWVLDGPVDLSQPTDVYFSRLVAYLWPHLTAENLATIRNWPLHEVFEQDGLIVSLAHNLPDKNHGHALYPDQPQLNFDQIAPDSQIDLAVYGHTHQQLLRYTSNGQVILNPGSIGQAYSPRPHLQTTTYADYALLQLNDGAITDLDLRQVPYDVSAELSLAKQQQLPYPEVYTKLRHTGATSTHNAAYLKQFEQRHDYQQEVAEFLHKYRHQHLEHHHHHH | failed
11 | MIGVVATLKVQPAKAAEFEKVFLDLAAKVKANEPGCLVYQLTRSKTEEGVYKVLELYASMDALKHHGGTDYFKAAGAAMGPTMAGAPVIEYLDAVE | not failed
12 | MKRIKTRAITLLALCIALNIVGSNIALMLKLPIYLDSIGTVLAAAVFGPLGGMLAGGATGVIVGATTDLYSLFFMPVQLLTGLVAGLLYRRIKPGTWRSNWWLAGVISLPGTLLSTAITVILFHGITSSGSSMLVQLLLGTGMGKTMAVFLIQVGTDYLDRFITVYVVALVYRALRYKLPQAN | failed
13 | MINKDTQLCMSLSGRPSNFGTTFHNYLYDKLGLNFIYKAFTTQDIEHAIKGVRALGIRGCAVSMPFKETCMPFLDEIHPSAQAIESVNTIVNDNGFLRAYNTDYIAIVKLIEKYHLNKNAKVIVHGSGGMAKAVVAAFKNSGFEKLKIYARNVKTGQYLAALYGYAYINSLENQQADILVNVTSIGMKGGKEEMDLAFPKAFIDNASVAFDVVAMPVETPFIRYAQARGKQTISGAAVIVLQAVEQFELYTHQRPSDELIAEAAAFARTKF | not failed
14 | MSGKRVAKNTLFQIVKMLITTVVNLYMVRVLLHQLGVEGYGIFNLIAGVLALMLFLNGAMTTSSQRYLSFYSTQQLEKRTSVFATTKSLHIVVAMIIFLLLFSLQTFIFEDLINIPVSVVSSAQSLYQIMAVGVLASVVTVPFNAQINANEDLGIDAVFSVFESLFKLIAAFLIVFFENQLVSLGALFVLVSWTMLIVKVVYCRIKYEECNLLNFKLDIALFKEMIGFTSWNSFGAICGVARVQGLAVVLNHFFGVYINAVYAIAVQVNGKLKEFSINIMKAFNPRIVKAESKDNREEMLHLSMLASRFSLLLYSVIALPIFFETDFMLSIWLGDYPDGVLTFIKLFLVLAFVNLTTVGLQTAIQATGDVKAYQSTIGSVLLLTVPLAYIFLSLGYPPYTVIVVSIFMEVVSCGMRLAFLKLKAGLSIKKYILFVINKALQVLIPTIVVLFSLTISFEQSILRFISTTLVSFGMISFLTYWLVLGVEEKKMIRLKV | not failed
15 | MKTGNLNPAPQQVTAPQNKARMDWPDIAKGISILGVVLLHVSLAIPGGQDTMMSHLNALLDPLRMPLFFMVSGFFAVKVLNQSFGELFRGRLWFYLVPYLLWTPVNLYLHRLEGTVFTGRAPGTWEWYSGSMLSATNMYWFLYFLVIFNLFLWATRKLPAWAIVALVASLWLLMPAYSEIEILRKSIIYLPTFLIGAYFRPLISRFAEAATRPKAIVFAAVLYVSGLALGVISNGLRDSENHGASVLWLMNLRDTFAHALGGNLTGFDMDHLPGMIIRIVSLPAGIVLCVWLGRIKPVGEFLKLIGRHTLPIYIGHATGLSLIFGFGLRWNFMEIDNFSDSLWHHTNTWMVIAFACAMLGGYLTYLISRVPVLGWTLVPPKLPEPDKTPAKAQADSHVKAQSAKPMNASTSSKTYGI | failed

Reference: a protein production outcome set (Wang et al. 2014)
